Experimental data: patent publication US20100015126A1, “Methods of Binding of Cross-Beta Structures By Chaperones” (priority 2006, published 2010)

Experiments:
[1] = molecular target: T1, human mitochondrial HSP60 (Homo sapiens, UniProt P10809); test: ELISA: binding of HSP60 to immobilized (misfolded) protein ligands
T1 construct: Dr. W. van Eden, Utrecht University; host or cells: E. coli
Method: Recombinant human HSP60 with N-terminal His-tag was a kind gift of Dr. R. van der Zee and Prof. Dr. W. van Eden (Institute of Infectious Diseases and Immunology, Faculty of Veterinary Medicine, Utrecht University, Utrecht, The Netherlands), and was supplied in lyophilized form. The HSP60 was produced in E. coli and purified using Nickel-Sepharose. The HSP60 was lyophilized from 20-40 mM ammonium-bicarbonate solution, after purification, and stored at −20° C. The construct lacks the mitochondrial signal sequence. […] Before use, the lyophilized protein is dissolved at room temperature at 1 mg/ml in 20-40 mM NH4HCO3, resulting in a pH of 7.0. Aliquots are stored at −20° C. or −80° C. The mitochondrial HSP60 is a functional dimer of heptamers (MW(HSP60 monomer)=˜58 kDa), and is involved in multimer protein assembling and aids in transport of unfolded proteins across membranes. For the binding studies, at two occasions separate HSP60 solutions were prepared originating from the same batch of purified protein, lyophilized in separate Eppendorf cups.
Binding of chaperones to immobilized (misfolded) protein ligands was determined using an enzyme linked immuno sorbent assay (ELISA) approach. […] After 5 washes with wash buffer followed by two washes with PBS, binding of antibodies was assessed. […] Plates were read at 450 nm. […]

immobilized BiP = molecular target: T2, immobilized BiP (Homo sapiens, UniProt P11021); test: Depletion of solutions from misfolded proteins using immobilized BiP (ELISA); assay type: binding; conditions: BiP coated at 5 μg/ml; 1, 10, 100 μg/ml misfolded protein
T2 construct: The human BiP gene except the signal peptide encoding region was obtained from Geneart (Germany); linker […]; made in house; host or cells: HEK 293E cells, transient transfection, PABC674 vector; secreted into the medium
T2 sequence (P11021 19-654): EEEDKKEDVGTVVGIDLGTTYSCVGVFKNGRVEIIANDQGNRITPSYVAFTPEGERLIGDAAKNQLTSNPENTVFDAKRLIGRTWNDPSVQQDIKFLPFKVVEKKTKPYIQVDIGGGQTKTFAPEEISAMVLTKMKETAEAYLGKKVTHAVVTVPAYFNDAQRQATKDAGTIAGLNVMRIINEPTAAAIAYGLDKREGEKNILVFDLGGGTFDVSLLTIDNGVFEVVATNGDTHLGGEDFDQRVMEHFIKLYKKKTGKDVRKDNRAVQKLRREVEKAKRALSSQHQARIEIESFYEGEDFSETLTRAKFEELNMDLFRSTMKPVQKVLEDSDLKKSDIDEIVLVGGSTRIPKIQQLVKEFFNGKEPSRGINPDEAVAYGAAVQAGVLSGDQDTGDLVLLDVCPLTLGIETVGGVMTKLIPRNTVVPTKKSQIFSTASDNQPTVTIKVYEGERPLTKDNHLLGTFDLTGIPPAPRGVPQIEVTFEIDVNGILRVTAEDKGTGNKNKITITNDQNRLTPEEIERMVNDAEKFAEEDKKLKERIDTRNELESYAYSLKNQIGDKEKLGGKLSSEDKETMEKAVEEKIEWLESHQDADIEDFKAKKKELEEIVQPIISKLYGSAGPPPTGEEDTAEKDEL
Method: We analysed whether recombinant human BiP with a C-terminal FLAG-tag and His-tag can be applied for depleting solutions from misfolded proteins comprising crossbeta structure.
BiP was coated at a concentration of 5 μg/ml at Greiner Microlon high-binding plates, for 1 h at room temperature with motion. As a negative control buffer was coated. ELISAs were performed essentially as described before. […] All binding buffers were PBS/0.1% (v/v) Tween20. Binding of dOVA was assayed using monoclonal anti-chicken egg albumin antibody (Sigma, A6075, 1:10.000 dilution) and RAMPO (Dako Cytomation, P0260, 1:3.000). […] Background signals obtained with buffer coated wells that were subsequently overlayed with protein solutions (see below), were subtracted from signals obtained with wells with coated BiP.

T1 sequence (P10809 27-573): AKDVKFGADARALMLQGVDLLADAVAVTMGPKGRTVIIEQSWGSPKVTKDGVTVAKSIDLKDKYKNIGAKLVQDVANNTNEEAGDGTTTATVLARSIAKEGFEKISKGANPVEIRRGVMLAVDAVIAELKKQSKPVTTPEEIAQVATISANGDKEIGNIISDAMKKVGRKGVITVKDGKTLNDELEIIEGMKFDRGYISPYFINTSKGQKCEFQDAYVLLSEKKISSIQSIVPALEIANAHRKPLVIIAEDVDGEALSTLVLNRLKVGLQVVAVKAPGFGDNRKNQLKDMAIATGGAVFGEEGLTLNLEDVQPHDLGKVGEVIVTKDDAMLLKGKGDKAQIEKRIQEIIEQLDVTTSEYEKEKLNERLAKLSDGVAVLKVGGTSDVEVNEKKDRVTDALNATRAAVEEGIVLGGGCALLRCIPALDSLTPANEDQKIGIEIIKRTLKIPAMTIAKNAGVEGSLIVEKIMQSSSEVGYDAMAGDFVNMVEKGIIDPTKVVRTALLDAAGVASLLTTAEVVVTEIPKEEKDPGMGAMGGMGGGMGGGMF

Binding of concentration series of HSP60 to coated ligand [1]: has been established | Extraction from solution by immobilized BiP (immobilized BiP): can be extracted
B1: dOVA standard: heat-denatured chicken ovalbumin (protein)
chain: GSIGAASMEFCFDVFKELKVHHANENIFYCPIAIMSALAMVYLGAKDSTRTQINKVVRFDKLPGFGDSIEAQCGTSVNVHSSLRDILNQITKPNDVYSFSLASRLYAEERYPILPEYLQCVKELYRGGLEPINFQTAADQARELINSWVESQTNGIIRNVLQPSSVDSQTAMVLVNAIVFKGLWEKAFKDEDTQAMPFRVTEQESKPVQMMYQIGLFRVASMASEKMKILELPFASGTMSMLVLLPDEVSGLEQLESIINFEKLTEWTSSNVMEERKIKVYLPRMKMEEKYNLTSVLMAMGITDVFSSSANLSGISSAESLKISQAVHAAHAEINEAGREVVGSAEAGVDAASVSEEFRADHPFLFCIKHIATNAVLFFGRCVSP
